Assay results taken from paper PMC5320007, “PpEst is a novel PBAT degrading polyesterase identified by proteomic screening of Pseudomonas pseudoalcaligenes” (Applied Microbiology and Biotechnology, 2016).

Experiments:
PpEst = molecular target: T1, PpEst (Ectopseudomonas oleovorans, UniProt W6R2Y2); experiment: 4-NPB hydrolysis inhibition, […] nm; format: biochemical
T1 construct: gene tesA

purified protein = substrate: CCCC(=O)Oc1ccc([N+](=O)[O-])cc1; experiment: purified protein; format: biochemical, Ectopseudomonas oleovorans; settings: 20 mM Tris-HCl pH 8.0, 150 mM NaCl, 0.1% Triton X-100, 25 °C, 'Exponential Rise to maximum' fit

Row | Molecule | Ki (PpEst) [µM] | Km (purified protein) [mM] | kcat (purified protein) [s⁻¹]
1 | O=C(O)c1ccc(C(=O)OCCCCO)cc1 [BuTA, 4-(4-hydroxybutoxycarbonyl)benzoic acid] | 670 | – | –
2 | PpEst (Ectopseudomonas oleovorans CECT 5344) (protein) GTLLVVGDSISAAFGLDSRQGWVALLEKRLSEEGFEHSVVNASISGDTSAGGAARLSALLAEHKPELVIIELGGNDGLRGQPPAQLQQNLASMVEQSQQAGAKVLLLGMKLPPNYGVRYTTAFAQVFTDLAEQKQVSLVPFFLEGVGGVPGMMQADGIHPAEAAQEILLDNVWPTLKPML | – | 4.85 | 1.98
